Experimental data as given in the supplement of paper PMC9732359.
± gives the uncertainty stated by the source.

Test: protein stability index of a GFP-peptide fusion (yeast GPS) (PSI 1-4); higher = more stable; sorted into four equal gates, so the index is relative within each strain
In short: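 Sequencing reads from sorted gates were used to score each peptide. The library consisted of tiled 17-residue yeast protein peptides fused downstream of GFP on a Cherry-expressing plasmid, pooled and carried in yeast. Mid-log cultures in leucine-free medium were split into four equal gates by GFP/Cherry ratio, and each gate's plasmids were PCR-amplified and Illumina-sequenced. The protein stability index adds up, over all gates, the read frequency multiplied by the gate number.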

Sequence	protein stability index (doa10∆)	protein stability index (pdr5∆)	protein stability index (san1∆)	protein stability index (ubr1∆)
STSFKNPRRLEIKDGRS [YMR153W/NUP53]	3.06 ± 0.084	3.06 ± 0.09	2.83 ± 0.085	3.16 ± 0.041
AHMGVLLVLLQDVIKVL [SWP82]	1.51 ± 0.068	1.58 ± 0.084	1.45 ± 0.1	1.51 ± 0.057
PPDIHPNLGPQLWLNSS [GRR1]	3.28 ± 0.089	3.36 ± 0.089	3.21 ± 0.066	3.14 ± 0.067
KVAKKRLGSFTRAKAKV [RPL36A]		2.64 ± 0.21	3.1 ± 0.16	2.86 ± 0.29
NTCYLNATLQALYRVND [UBP6]	2.25 ± 0.07	2.59 ± 0.069	2.69 ± 0.063	2.5 ± 0.055
LLKLLTRLVQLREFRIT [GRR1]	1.89 ± 0.053	1.27 ± 0.044	1.23 ± 0.13	1.08 ± 0.052
NATLTPNDSNDEKVTIL [SWI1]	3.02 ± 0.059	3.22 ± 0.061	3.1 ± 0.066	3.11 ± 0.04
PAGMNETPKSNNSLSYH [ITC1]	2.08 ± 0.14	3.22 ± 0.12	2.56 ± 0.14	3 ± 0.092
FVVGVDNVSSQQMHEVR [RPP0]	2.1 ± 0.078	2.74 ± 0.1	3.07 ± 0.15	2.74 ± 0.08
SVNPSNKPIKRMLSSIL [SWP82]	2.95 ± 0.065	2.99 ± 0.044	2.93 ± 0.045	2.99 ± 0.037
TALKQYEKELMGDELTR [RPN6]	3.26 ± 0.13	3.54 ± 0.15	3.42 ± 0.077	3.51 ± 0.12
GGSTTNNTTTTSTKPSF [YOR098C/NUP1]	2.79 ± 0.075	3.01 ± 0.074	2.8 ± 0.072	2.75 ± 0.067
KRMLLSLSEFARRRQPT [SNF2]	2.26 ± 0.15	2.63 ± 0.13	1.77 ± 0.25	2.58 ± 0.092
PENLQVTSEKYPFDKLE [BRR2]	2.86 ± 0.085	3.07 ± 0.093	2.93 ± 0.064	3.19 ± 0.035
TSRIDEEKPGLIITRKA [SMC4]	2.91 ± 0.063	3.07 ± 0.052	3.07 ± 0.044	3 ± 0.057
DKLELYVLRNVLRIPEE [MTW1]	3 ± 0.13	2.45 ± 0.084	2.94 ± 0.076	3.41 ± 0.12
LPEIAKEIYTTLGNQML [YJR042W/NUP85]	2.28 ± 0.086	2.42 ± 0.087	2.87 ± 0.093	2.49 ± 0.069
WKAPSSIVLDSEHFDVN [DIS3]	3.14 ± 0.062	3.47 ± 0.064	3.28 ± 0.056	3.33 ± 0.052
NSNPTSNVFGSNNSTTN [YJL041W/NSP1]	3.23 ± 0.079	3.43 ± 0.086	3.16 ± 0.055	3.46 ± 0.066
MGYSGWCTTCKSAENII [RET1]	3.21 ± 0.15	2.99 ± 0.14	3.22 ± 0.079	3.19 ± 0.094
LGQIGACHVEVPYVLMG [COB]	2.05 ± 0.083	2.01 ± 0.066	1.89 ± 0.12	1.95 ± 0.06
EEWLNTKDPDEQQLFEI [CSN9]	3.06 ± 0.11	3.16 ± 0.12	3.24 ± 0.051	3.15 ± 0.075
KIKLLTQATSEDGTSAS [RPC19]	2.61 ± 0.065	2.85 ± 0.079	2.89 ± 0.062	3.11 ± 0.078
FAEYIQANIQLYSIRED [PRE1]	2.39 ± 0.1	2.67 ± 0.091	2.49 ± 0.068	2.59 ± 0.091
RSLGLQQVVCIFSYGPH [POP6]	1.51 ± 0.028	1.7 ± 0.037	1.57 ± 0.049	1.64 ± 0.026
WWTNSHHDGKLWNLNAY [PRP8]	2.9 ± 0.21	2.76 ± 0.14	2.98 ± 0.082	2.45 ± 0.14
ANTPSIPTNPVDNENNK [SWI3]	2.62 ± 0.08	2.8 ± 0.068	2.68 ± 0.053	3.08 ± 0.071

Sequence	protein stability index (doa10∆)	protein stability index (pdr5∆)	protein stability index (san1∆)	protein stability index (ubr1∆)
TEGCIGLSQTEAFGNIK [MCD1]	2.61 ± 0.058	2.61 ± 0.076	2.81 ± 0.093	2.56 ± 0.072
SFIINFISNLPNVSDKY [NUT1]	2.28 ± 0.08	1.91 ± 0.07	2.06 ± 0.15	1.95 ± 0.057
LASKAARKSAPSTGGVK [HHT1]	2.89 ± 0.15	3.12 ± 0.12	2.99 ± 0.076	3.05 ± 0.1
KIQQQQPGYADLEHKED [QCR6]	2.51 ± 0.062	2.71 ± 0.071	2.69 ± 0.069	2.69 ± 0.044
NLKFLKNKDSLVSNPHE [SRB4]	2.68 ± 0.06	2.51 ± 0.076	2.49 ± 0.05	2.84 ± 0.049
SQISKAEMEADSLASEL [SMC4]	2.75 ± 0.08	3.31 ± 0.16	3.27 ± 0.071	2.82 ± 0.16
PVTSIPSTNKKLSISNA [GAL11]	2.29 ± 0.061	2.67 ± 0.056	2.53 ± 0.058	2.8 ± 0.058
ARFRSIHILKVAEIEKT [RPL20A]	1.2 ± 0.067	1.16 ± 0.051	1.14 ± 0.088	1.08 ± 0.048
LKKFLQEKMDPNNSRDD [IRR1]	3.11 ± 0.081	3.12 ± 0.068	3.19 ± 0.064	3.09 ± 0.07
EQYIQELDKREDMIDQV [SMC3]	3.23 ± 0.065	3.03 ± 0.084	3.01 ± 0.072	3.29 ± 0.15
PIEVDEELLQLFLNNFV [IRR1]	2.93 ± 0.063	2.86 ± 0.071	2.97 ± 0.054	3.18 ± 0.058
KLFNKWSFEEVEVKDAS [RPS5]	2.17 ± 0.087	1.77 ± 0.072	1.4 ± 0.15	1.67 ± 0.06
ELTKEEAMYKLQLASLQ [SMC3]	2.89 ± 0.1	2.88 ± 0.068	2.55 ± 0.084	2.64 ± 0.053
SSFYINHASMDVYNREL [BRR2]	3.02 ± 0.12	2.96 ± 0.1	3.04 ± 0.076	3.17 ± 0.09
YYAHSIPSSKIDDFTTR [SNU114]	2.96 ± 0.07	3.15 ± 0.078	3.08 ± 0.067	3.32 ± 0.077
VNAIKNEVKEWAVTLDT [DSN1]	3.11 ± 0.13	2.82 ± 0.13	3.1 ± 0.074	3.33 ± 0.12
ILEFITAAQVANVELTP [RPC34]	2.68 ± 0.12	2.13 ± 0.08	2.27 ± 0.095	1.53 ± 0.095
PIMLRSKNCYLSEATES [RPB2]	1.23 ± 0.075	1.46 ± 0.11	1.1 ± 0.15	1.14 ± 0.061
LPLDSQDDEYVKDWLYD [PRP8]	3.44 ± 0.15	3.39 ± 0.088	3.35 ± 0.099	3.1 ± 0.053
MTDRYSFSLTTFSPSGK [PRE8]		3.16 ± 0.25		
YSTANEYIIAAIRKAPH [RPN3]	2.82 ± 0.061	2.64 ± 0.052	2.62 ± 0.042	2.62 ± 0.047
GLIPADATFAGHSLGEY [FAS1]	3.01 ± 0.087	3.21 ± 0.06	3.08 ± 0.11	3.03 ± 0.059
VVDILSANGYLNATTAM [BRR2]	2.75 ± 0.21	3.3 ± 0.22	3.17 ± 0.16	3.06 ± 0.2
EATQDDDFDMLFGENDT [NUT1]	2.92 ± 0.071	3.13 ± 0.06	3.06 ± 0.065	3.04 ± 0.062
KDSLWQSEHLEAVVDQD [FAS1]	3.43 ± 0.24	3.36 ± 0.14	3.46 ± 0.088	3.41 ± 0.09
VHPGANYLLKRNEDARR [RPO31]	3.21 ± 0.067	3.14 ± 0.077	2.93 ± 0.077	3.35 ± 0.038
